B1: Pre-mRNA-processing factor 40 homolog B, residues 274 to 332; numbered along this chain, Q6NWY9 (parent)
chain: SNREKAKQAFKELLRDKAVPSNASWEQAMKMVVTDPRYSALPKLSEKKQAFNAYKAQRE
B2: Lysine-specific demethylase 5C, residues 319 to 373; numbered along this chain, P41229 (parent)
chain: AQFIESYVCRMCSRGDEDDKLLLCDGCDDNYHIFCLLPPLPEIPKGVWRCPKCVM

Variants of: B1
Assay: abundance fitness (aPCA) (normalised: wild type 0, dead -1); higher = more abundant; growth selection in yeast, the domain comes from the species named
Conditions: Homo sapiens

Abundance fitness, by site and new letter:
E59: C -0.216 | L -0.424 | H -0.204 | R -0.189 | A 0.184 | V 0.042 | Q -0.033 | M 0.167 | D -0.203 | G -0.212 | T -0.109 | W -0.54 | K 0.055 | S -0.397 | F -0.53
K55: Q -0.239 | H -0.258 | I -0.11 | M -0.356 | T -0.242 | F -0.652 | Y -0.644 | N -0.337 | W -0.947 | V -0.139 | C 0.12 | R -0.18 | P -0.359 | E -0.333 | S -0.25 | A -0.304 | D -0.29
A56: Q 0.027 | C -0.451 | G -0.242 | R -0.116 | I -0.261 | M -0.127 | V -0.076 | H -0.102 | L 0.034 | T -0.122 | P -0.454 | S -0.016 | N -0.18 | Y -0.351 | F -0.526 | K -0.015 | W -0.293
Q57: N -0.163 | M -0.322 | Y -0.715 | T -0.165 | V -0.257 | C -0.156 | H -0.149 | L -0.527 | R -0.286 | E 0.248 | S 0.027 | F -0.514 | D 0.158 | A 0.046 | I -0.565 | P -0.249 | W -0.138
R58: Y 0.1 | V 0.085 | M 0.184 | D -0.244 | I -0.648 | T -0.108 | S -0.008 | C 0.26 | W 0.061 | A 0.188 | G 0.093 | L 0.212 | F -0.162 | Q 0.16 | H -0.013 | P -0.018 | K 0.008
A50: F -0.485 | H -0.606 | K -0.765 | R -0.818 | C -0.008 | L -0.084 | T -0.43 | G -0.462 | Y -0.895 | E -0.224 | P -0.351 | I -0.194 | M -0.076 | W -0.627 | S -0.382 | N -0.629 | D -0.299 | Q -0.212
N52: H -0.053 | R -0.053 | G -0.282 | M 0.039 | S -0.072 | L -0.04 | F -0.901 | T -0.231 | Q 0.062 | K 0.031 | A -0.09 | D -0.038 | E 0.253 | W -0.431 | C -0.129 | P -0.367 | V -0.11 | Y -0.21
A53: H -0.476 | F -0.835 | N -0.079 | S -0.089 | R -0.452 | K -0.174 | E 0.317 | G -0.293 | I -0.372 | D 0.042 | V -0.274 | Y -0.524 | M -0.394 | P -0.494 | L -0.314
Y54: E -0.363 | L -0.085
F51: G -0.28 | K -0.371 | W -0.61 | S -0.463
Q49: T -0.364 | V -0.205 | W -0.643 | S -0.162 | Y -0.544

Variants of: B2
Assay: as above
Conditions: Homo sapiens

Abundance fitness of substitutions, site by site:
Q2: M -0.109 | N -0.019 | C -0.446 | K 0.247 | V -0.153 | H -0.187 | G -0.446 | F -0.531 | W -0.057 | L -0.119 | I 0.186 | A -0.273 | Y -0.053 | E -0.258 | P -0.141 | T 0.203 | R -0.271
Y7: D 0.173 | I -0.023 | F -0.14 | K 0.155 | S 0.139 | R 0.14 | W -0.266 | P -0.073 | T 0.199 | A 0.18 | E 0.193 | Q -0.052 | V -0.121 | M 0.078 | H -0.09 | L -0.057
M11: L -0.264 | K 0.169 | P -0.669 | D -0.063 | Q 0.045 | R 0.073 | N 0.045 | G -0.072 | C -0.085 | W -0.18 | T -0.211 | E 0.171 | A -0.079 | S -0.138 | I -0.121 | H -0.281 | V -0.135
F3: P -0.141 | L 0.005 | A -0.12 | I -0.17 | H -0.095 | W -0.639 | V 0.042 | T -0.046 | S 0.06 | R 0.072 | G 0.022 | N 0.182 | C -0.193 | D -0.418 | Y -0.043 | Q -0.201 | K 0.016 | M 0.095 | E -0.114
A1: V -0.297 | S -0.244 | E -0.143 | W -0.242 | L -0.331 | I 0.146 | D -0.009 | T -0.704 | M 0.135
C12: M -0.669 | P -0.52 | L -0.344 | H -0.825 | F -0.731 | A -0.99 | I -1.14 | K -0.435 | T -0.683 | S -0.855 | N -0.713 | W -0.853 | R -0.586 | E -0.797 | G -0.756
C9: F -0.659 | Y -0.955 | R -0.827 | V -0.792 | L -0.978 | S -0.82 | G -0.655 | T -0.726 | W -0.937 | H -0.798 | D -0.847 | A -0.797
V8: T -0.039 | R -0.075 | C -0.258 | F -0.28 | L -0.243 | Q -0.11 | W -0.247 | H -0.11 | D -0.315 | M -0.052 | A -0.092 | K 0.254 | N 0.083 | E -0.266 | Y -0.157 | P -0.12 | G -0.106 | S 0.007 | I -0.241
I4: F -0.098 | Q 0.451 | D -0.058 | V -0.019 | N -0.35 | R -0.3 | G -0.302 | Y -0.687 | T 0.201 | E -0.145 | H -0.111 | L -0.338 | M 0.115 | A -0.188 | C -0.106 | W -0.287 | K -0.033 | P -0.118
R10: Q -0.609 | A -0.148 | Y -0.175 | E -0.1 | D -0.384 | L 0.021 | M -0.036 | P -0.394 | T 0.082 | S -0.28 | V -0.137 | C -0.108
S6: Q -0.409 | Y -0.1 | V -0.377 | N 0.183 | I -0.445 | R 0.001 | F -0.154 | P -0.097 | A -0.068 | H -0.294 | T 0.148 | C -0.361 | M 0.217 | G -0.042 | K -0.295 | E -0.08 | W -0.414 | D -0.523
E5: K 0.036 | S -0.125 | W -0.451 | Q 0.02 | D 0.054 | H -0.263 | P -0.435 | L -0.378 | M 0.145 | N 0.275 | C 0.046 | R 0.046 | Y -0.162 | G -0.128 | V -0.481 | T -0.078 | I -0.283

Source: the Human Domainome abundance scans (Beltran et al. 2025)
